In paper PMC8557155 (Annals of Nuclear Medicine, 2021):

Assays:
[1] = in vivo; cited from earlier work
Text: This study is the first clinical trial on ^177Lu-DOTATATE for unresectable NETs in Japan. At 29.6 GBq, the absorbed dose to the kidney and red bone marrow was 16.8 Gy and 0.722 Gy, respectively. These values were lower than the reported threshold dose for the kidney (23 Gy) and the red bone marrow (2 Gy). The calculated absorbed doses to the kidney, spleen, red bone marrow, and liver were 0.568, 0.559, 0.0244 and 0.247 mGy/MBq, respectively, in this study. We compared the calculated absorbed dose to each organ with previously published studies in Caucasian populations. […] In this study, the primary lesions were located in the pancreas, stomach, and rectum. Therefore, many patients underwent pancreatectomy and colectomy before enrollment in the study; diarrhea is likely to occur more in such patients compared to primary midgut cases because pancreatic enzyme deficiency o ...

[2] = parameters: species or system human (Japanese patients); details: in vivo
Procedure: Image processing and radioactivity quantification were performed by a nuclear medicine expert at site, and dosimetry calculation was performed by the sponsor of the study. All images were taken using the Symbia T-16 SPECT/CT scanner (Siemens). The dual-headed gamma camera was equipped with a 0.952-cm (0.375-in)-thick NaI crystal and a medium-energy low penetration collimator. An energy window of ± 10% was applied around the one dominant gamma ray energies of ^177Lu (208 keV). The matrix size was 256 × 1024. […] Radioactivity quantification was performed on patient images, and the geometric mean was calculated. Regions of interests (ROIs) were drawn around the kidneys, liver, spleen, other organs, and whole body on the planar images. Tumor tissue within the organs was excluded. The absorbed dose to each organ was estimated using the OLINDA/EXM 1.0 (Vanderbilt University), a software based on the Medical Internal Radiation Dose algorithm, which is widely used for established beta and gamma emitting radionuclides. The biological effective dose (BED) for the kidneys were estimated using the SAS software, version 9.4 (SAS Institute).

[3] = parameters: species or system human (Japanese patients); details: in vivo; remark: listed apart in the source

For `C[C@@H](O)[C@H](NC(=O)[C@@H]1CSSC[C@H](NC(=O)[C@@H](Cc2ccccc2)NC(=O)CN2CCN(CC(=O)O)CCN(CC(=O)O)CCN(CC(=O)O)CC2)C(=O)N[C@@H](Cc2ccc(O)cc2)C(=O)N[C@H](Cc2c[nH]c3ccccc23)C(=O)N[C@@H](CCCCN)C(=O)N[C@@H]([C@@H](C)O)C(=O)N1)C(=O)O` [177Lu-DOTATATE, ^177Lu-DOTA^0-Tyr^3-octreotate, metal not drawn], the “Diarrhea, frequency” value [1] is listed as 28.8%, the “Severe renal toxicities, frequency” value [1] is listed as 0.9% and the “BED for the kidneys for 7.4 GBq, max” value [2] is listed as 5.38 Gy/7.4 GBq. For the same compound, the “BED for the kidneys for 7.4 GBq, mean” value [2] was 4.25 Gy/7.4 GBq, the “BED for the kidneys for 7.4 GBq, min” value [2] was 3.04 Gy/7.4 GBq and the “BED for the kidneys for 29.6 GBq, max” value [2] was 21.5 Gy/29.6 GBq. For the same compound, the “BED for the kidneys for 29.6 GBq, mean” value [2] was 17.0 Gy/29.6 GBq, the “BED for the kidneys for 29.6 GBq, median” value [2] was 17.2 Gy/29.6 GBq and the “BED for the kidneys for 29.6 GBq, min” value [2] was 12.2 Gy/29.6 GBq. For the same compound, the “BED for the kidneys, max” value [2] was 0.727 mGy/MBq, the “BED for the kidneys, mean” value [2] was 0.574 mGy/MBq and the “BED for the kidneys, median” value [2] was 0.580 mGy/MBq. For the same compound, the “BED for the kidneys, min” value [2] was 0.411 mGy/MBq, the “Effective radioactivity in the kidney at 1 h” value [2] was 2.39 ± 0.535% and the “Effective radioactivity in the liver at 1 h” value [2] was 4.97 ± 2.01%. The “Effective radioactivity in the spleen at 1 h” value [2] was 0.812 ± 0.405%, the “Fraction of the effective radioactivity retained in the whole body at 1 h” value [2] was 71.4 ± 4.9% and the “Fraction of the effective radioactivity retained in the whole body at 4 h” value [2] was 39.5 ± 5.7%. For the same compound, the “Fraction of the effective radioactivity retained in the whole body at 24 h” value [2] was 16.0 ± 3.5%, the “Fraction of the effective radioactivity retained in the whole body at Day 6” value [2] was 5.8 ± 1.3% and the “Fraction of the injected activity retained in the blood at 20 min after the injection” value [3] was 0.00351 % dose/g. For the same compound, the “Fraction of the injected activity retained in the blood at 4 h after the injection” value [3] was 0.00077 % dose/g, the “Effective half-time, distribution phase” value ([3]; iv) was 2.37 ± 0.30 h and the “Effective half-time, excretion phase” value ([3]; iv) was 42.7 ± 2.44 h.
